System: T1, Nc1ncnc2c1ncn2[C@@H]1O[C@H](COP(=O)(O)OP(=O)(O)OP(=O)(O)O)[C@@H](O)[C@H]1O
T1 construct: RdRp domain residues 275-903 of NS5, cut from the genome polyprotein; E. coli BL21(DE3)-pRIL; 75 kDa
Assay: purified protein
Type: biochemical, Zika virus
Conditions: poly-U 3 μg/mL, ATP 200–2250 μM, 2.5 mM MnCl2, pH 7.5, 30 °C

For “ZIKV RdRp (ZIKV NS5 RdRp domain) (Zika virus)”, the Km was 561 ± 38 µM.
